From publication PMC11440508, “Dually Labeled Neurotensin NTS1R Ligands for Probing Radiochemical and Fluorescence-Based Binding Assays” (Journal of Medicinal Chemistry, 2024)
“And” between values parts separate entries of the source, which are not always exact repeats. Equal values may be shown once. Read-outs that look alike come from different tables or passages of the source.

Columns and labels:
NTS1R (Homo sapiens) [1] = target: NTS1R (Homo sapiens) (UniProt P30989); conditions: cited from earlier work
NTS1R (Homo sapiens), sequence (P30989 whole entry): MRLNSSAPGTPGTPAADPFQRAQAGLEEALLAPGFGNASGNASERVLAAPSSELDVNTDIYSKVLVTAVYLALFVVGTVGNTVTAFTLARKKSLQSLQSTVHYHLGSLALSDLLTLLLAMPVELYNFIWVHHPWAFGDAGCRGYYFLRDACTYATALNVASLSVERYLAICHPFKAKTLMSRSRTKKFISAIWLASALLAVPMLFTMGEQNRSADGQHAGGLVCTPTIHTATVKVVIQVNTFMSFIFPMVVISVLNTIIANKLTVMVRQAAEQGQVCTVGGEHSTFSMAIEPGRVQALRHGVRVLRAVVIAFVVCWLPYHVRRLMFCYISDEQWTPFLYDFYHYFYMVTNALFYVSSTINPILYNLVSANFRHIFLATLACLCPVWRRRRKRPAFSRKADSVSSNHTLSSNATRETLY

NTS1R (Homo sapiens) [2] = target: NTS1R (Homo sapiens) (UniProt P30989); assay: radioligand competition binding; conditions: cited from earlier work
[3] = target: neurotensin NT(8-13) 8-13 (Homo sapiens) (UniProt P30990); assay: radioligand competition binding; conditions: cited from earlier work
neurotensin NT(8-13) 8-13 (Homo sapiens), sequence (P30990 whole entry, looked up, tested part not stated): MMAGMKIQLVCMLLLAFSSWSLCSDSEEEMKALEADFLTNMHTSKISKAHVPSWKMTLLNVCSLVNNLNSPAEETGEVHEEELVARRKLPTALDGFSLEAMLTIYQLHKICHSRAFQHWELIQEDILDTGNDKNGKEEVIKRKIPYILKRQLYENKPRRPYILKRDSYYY

[4] = target: neurotensin NT(8-13) 8-13 (Homo sapiens) (UniProt P30990); conditions: cited from earlier work
[5] = target: human neurotensin receptor type 2 (hNTS2R) in homogenates of HEK293T cells (human) (UniProt O95665); assay: radioligand binding; saturation binding of [^3H]UR-MK300 at homogenates of HEK293T-hNTS2R cells
human neurotensin receptor type 2 (hNTS2R) in homogenates of HEK293T cells (human), sequence (O95665 whole entry): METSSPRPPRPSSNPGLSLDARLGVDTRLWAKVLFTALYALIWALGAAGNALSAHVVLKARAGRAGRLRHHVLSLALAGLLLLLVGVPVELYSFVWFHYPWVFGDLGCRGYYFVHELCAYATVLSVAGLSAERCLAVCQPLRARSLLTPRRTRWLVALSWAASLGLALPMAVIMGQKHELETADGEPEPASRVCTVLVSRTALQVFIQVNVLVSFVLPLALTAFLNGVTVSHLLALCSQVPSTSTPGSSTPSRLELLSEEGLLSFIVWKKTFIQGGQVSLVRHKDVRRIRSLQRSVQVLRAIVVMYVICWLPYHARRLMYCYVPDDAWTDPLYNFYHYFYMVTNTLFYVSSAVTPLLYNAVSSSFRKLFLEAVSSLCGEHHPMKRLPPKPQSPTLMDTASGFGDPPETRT

[6] = target: human neurotensin receptor type 1 (hNTS1R), endogenous in HT-29 colon carcinoma cells (human (endogenous in HT-29)) (UniProt P30989); assay: radioligand binding; saturation binding of [^3H]UR-MK300 at intact HT-29 cells, 23 ± 1 °C
human neurotensin receptor type 1 (hNTS1R), endogenous in HT-29 colon carcinoma cells (human (endogenous in HT-29)), sequence (P30989 whole entry): as the sequence (P30989 whole entry) above

NT(8–13) 8-13, sequence (P30990 whole entry, looked up, tested part not stated): as the sequence (P30990 whole entry, looked up, tested part not stated) above
NTS1R, sequence (P30989 whole entry): as the sequence (P30989 whole entry) above

In the case of NT(8–13) 8-13 (from UniProt P30990), the Ki (NTS1R (Homo sapiens) [1]) is listed as 1 nM and 0.24 nM and the Ki (NTS1R (Homo sapiens) [2]) is listed as 0.14 nM.

In the case of NTS1R (from UniProt P30989), the Ki [3] is listed as 0.14 nM and the Ki [4] is listed as 1 nM and 0.24 nM and 0.29 nM.

Substance [^3H]UR-MK300 (peptide) has a Kd [5] of 0.75 nM and a Kd [6] of 0.41 nM.
